Patent US9932479B2, “Dyes and compositions, and processes for using same in analysis of protein aggregation and other applications” (Enzo Biochem, Inc., priority 2009, dated 2018)

Biological target: T1, ß-lactoglobulin (Bos taurus, UniProt P02754)
T1 sequence (P02754 17-178): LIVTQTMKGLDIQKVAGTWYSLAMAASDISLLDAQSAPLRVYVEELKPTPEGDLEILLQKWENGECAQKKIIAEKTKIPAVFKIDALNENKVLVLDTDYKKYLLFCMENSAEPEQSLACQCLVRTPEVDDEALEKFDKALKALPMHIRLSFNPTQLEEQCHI
Assay: Chaperone activity assay: heat-induced BLG aggregation, Tol3/S25 readout
Format: biochemical
Settings: 0.4 mg/ml HSP 27, 8 mg/ml ß-lactoglobulin (mass ratio 1:20), 68° C.
Protocol: Aggregation of ß-lactoglobulin was monitored in the presence or absence of the chaperone HSP 27. Aggregation of 8 mg/ml ß-lactoglobulin was monitored using 1.25 μM Tol3 and 1.25 μM S25 in PBS, pH 7.4 with 2.5 mM EDTA and 0.05% sodium azide. When the chaperone HSP 27 was added it was added to a final concentration of 0.4 mg/ml. HSP 27 was also run in the absence of R-lactoglobulin as a control. Aggregation was initiated by heating the protein solution to 68° C. in a 96 well half-volume clear plate (Biomol international, Inc). The fluorescence intensity was then recorded every 2 minutes, with shaking between reads. The excitation wavelength was set to 550 nm and the emission was set to 610 nm on a BMG Fluorstar plate reader. The fluorescence intensity of the starting point was subtracted from the remaining points. […] Since Hsp 27 is binding with unfolded BLG intermediate, thus preventing protein aggregation, these styryl cyanine dyes are detecting protein aggregation, as opposed to unfolding.

Hsp 27: heat shock protein, chaperone
Effect on heat-induced aggregation of BLG: significantly prevent the aggregation of BLG
